The values that follow are results of earlier work, collected in article PMC3478875.

Data set [1] concerns the target plasminogen (Homo sapiens) (UniProt P00747).
For data set [2] the target is unchanged. The source holds these as a separate data set.
In data set [3] the target is plasmin (Homo sapiens) (UniProt P00747).
Data set [4] concerns the target plasminogen (Homo sapiens) (UniProt P00747). This is another data set of the same source.
For data set [5], the target named is Glu-plasminogen (Homo sapiens) (UniProt P00747).
Data set [6] shares this target. The source holds these as a separate data set.
The target of data set [7] is Lys-plasminogen (Homo sapiens) (UniProt P00747).

Where two headings read alike, the source gives them in different places.

Usually Kd stands for the constant that tells how readily two partners part at equilibrium. For the substance DnaK (from UniProt B8DT62), the dissociation constant Kd in data set [1] was 12 nM. In the case of “Fructose-1,6-bisphosphate aldolase (from UniProt P9WQA2)”, the equilibrium dissociation constant (Kd) in data set [2] is 6.73 nM. With GAPDH (from UniProt Q59906), the Kd in data set [3] is 25 nM; in data set [4], 220 nM. With “Outer surface protein A (OspA) (from UniProt Q09087)”, the dissociation constant (Kd) in data set [5] is 260000 nM. On to alpha-enolase (from UniProt P69949), for which the figures for the Kd in data set [6] and in data set [7] were 1.6 nM and 127 nM, respectively.
